# Assay results: patent US20250191685
# Test system: KLF6 RTF CDKN1C #200, 8 phosphate-contact R to Q 8 phosphate-contacting Arg to Gln (Homo sapiens)
# Assay: cell_activity
# Settings: on-target activity reduced by only 12%; only CDKN1C upregulated in RNA-seq
substance,measurement,value
CDKN1C promoter site #200,binding signal (% of unmodified),88
